From PMC7375805

Target: AP2 FLAP (full-length β2 subunit AP2 complex, i.e. AP2 lacking the α appendage and the α hinge) (UniProt P18484)
Assay: cryo-EM structure; cryo-electron tomography and subtomogram averaging of AP2 FLAP on liposomes with PtdIns(4,5)P2 and TGN38 YxxΦ lipopeptide, no clathrin, HKM2 buffer; ~9 Å

percent of AP2 dimerized: 20% | stoichiometry N: 2
Substance: AP2 FLAP (full-length β2 subunit AP2 complex, i.e. AP2 lacking the α appendage and the α hinge) (from UniProt P18484 1-621; P63010 1-937; P84092 1-435; P62743 1-142)
